“Also recorded” adds a separate entry of the source. Each block holds one molecule with its values, some of them ahead of it.
What was measured:
[1] = target: T1, Cyanidioschyzon merolae Cm-GWD DUF domain (CmGWD DUF, amino acids 345-469; full length Cm-GWD SEQ ID NO: 2) (Cyanidioschyzon merolae, UniProt M1VD00); assay: differential scanning fluorimetry (DSF)-based thermal shift assay, oligosaccharide binding
T1 construct: recombinant, purified
T1 sequence (M1VD00 345-469): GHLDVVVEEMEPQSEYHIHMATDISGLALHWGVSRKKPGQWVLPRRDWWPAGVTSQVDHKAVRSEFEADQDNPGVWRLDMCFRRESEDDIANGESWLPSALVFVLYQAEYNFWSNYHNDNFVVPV
Description: FIGS. 5A-C show graphs and images illustrating expression and thermal shift of various domains of the Cm-GWD. (A) is an image showing the expression of the Cm-GWD DUF domain constructs with varying N- and C-termini. (B) is an image showing the expression of individual N-terminal domains of Cm-GWD.
To characterize the enzymes' structure, the architecture of the dikinases was first analyzed. The sequences of the dikinases were analyzed using bioinformatic tools. The dikinase primary sequences from multiple species were analyzed to predict sequence conservation, secondary structure, regions of disorder, and regions of hydrophobicity in order to define the optimal constructs for recombinant protein expression of Cm-GWD. At-GWD and PWD have been reported to have cTP, one or two CBM domains, and a dikinase domain (FIG. 4). […]
The binding of purified proteins to oligosaccharides was measured using a differential scanning fluorimetry (DSF)-based thermal shift assay. […] As a proof of principle, the binding of the Cm-GWD DUF to the oligosaccharide maltohexaose and to maltose was measured, as a negative control. […] The change in Tm was monitored with increasing concentration of oligosaccharide (FIG. 5C). […]

[2] = starch-phosphorylation assay (33P-β-ATP radio-label incorporation into starch); format: biochemical, Arabidopsis; details: for ability to phosphorylate starch (specific activity): FIG. 2, FIG. 3
Description: FIG. 8 includes the framework for the C6 versus C3 assay. To label the C6-position, non-phosphorylated starch is incubated in the presence of GWD and ^33P-β-ATP, the protein and label are washed away, and the starch is incubated in the presence of ATP and PWD. The C3 position is labeled in a similar manner, except ^33P-β-ATP is used with PWD. These products are then used as substrates in dephosphorylation assays. A starch-phosphorylation assay is routinely used in the lab to measure the specific activity of protein constructs. This assay has 3 benefits: it utilizes an endogenous substrate, measures the amount of phosphate added to glucose (dikinase activity), and allows comparison of addition to the C3- and C6-positions (site-specific activity) (FIG. 8). Phosphate-free starch was isolated from plants lacking the dikinase GWD, and the sample dialyzed to remove free phosphate. To measure dikinase activity, this phosphate-free starch was used as the substrate. The starch was incubated with the dikinase in question along with ^33P-β-ATP, the ^33P-β-ATP and dikinase was washed out, and radio-label incorporation into the starch was measured.

[3] = glucose release from native starch treated with combinations of amylases, dikinase and phosphatase; format: biochemical, Arabidopsis
Description: FIG. 7 includes a plot showing the glucose released for native Arabidopsis starch that was incubated at 25° C. for 60 minutes with combinations of amylases (BAM+ISA), dikinase (At-GWD), or phosphatase (At-SEX4), undigested starch was pelleted with a high-speed spin, the supernatant sugars were hydrolyzed via acid hydrolysis and glucose content was measured.
To observe how GWDs can be utilized to enhance starch utilization, native Arabidopsis starch was first treated with combinations of BAM3, ISA3, St-GWD, and At-SEX4. a high-speed spin was performed to remove the undigested starch, any remaining oligo-saccharides were hydrolyzed, and glucose released into the supernatant was measured (FIG. 7). Glucose was only released upon addition of amylases.
Native Arabidopsis starch was treated with combinations of BAM3, ISA3, StGWD, and AtSEX4, performed a high-speed spin to remove the undigested starch, hydrolyzed any remaining oligo-saccharides, and measured glucose released into the supernatant (FIG. 7). Glucose was only released upon addition of amylases, as expected.

Molecule: Cm-GWD: full length Cyanidioschyzon merolae glucan, water dikinase, amino acids 1-1572
activity compared with At-GWD and At-PWD ([2]; FIG. 2): between that of At-GWD and At-PWD
ability to phosphorylate starch (specific activity) [2]: robust specific activity

Molecule: NcCBM20-AtPWD: CBM20 of Neurospora crassa NCU08746 fused N-terminally to the dikinase domain of PWD
phosphorylation of starch by chimeric CBM-dikinase ([2]; phosphate-less Arabidopsis (sex1-3) starch or potato starch, FIG. 11A): robustly phosphorylated starch
priming of starch for phosphorylation by wild-type AtPWD ([2]; sex1-3 starch pretreated with the enzyme, FIG. 11B): served to prime wild-type AtPWD; also recorded: to a greater extent than starch pretreated with wild-type StGWD

B1: truncated Cm-GWD construct (residues 511-1572): truncated Cm-GWD encoding the second predicted CBM and catalytic dikinase domain (protein)
chain: MTILGLERRSLDDDGETVICFSVEEDGFALRVHADLSPLVIHWGIARHRVTEFLQPDESLAVETKGRTYRFENKAMRTEFVPDEHHQGTYYAEIHLKKEHAPRAVTFVLFNPELNRWYRAEGGGNFVLRMDLESFSQLPGSVGKHEDVAQKIIEVEVEYGSWTLMHRYNLANDILRNSMSALDADLLQIVFVWLRYSFLRQLDWQRSYNTQPRLLAHAQEQLTTTLAQVFVSRPDLRLWVRLCLSMLGRGGGNGQRIRDDILRIMHKHHIPETPGHFMEQWHQKLHNNTTPDDVAICESYLAFLRSNGDKNVFYETLQKHGVTKERLASYERPIFAEVQTYPCDTNSLIHDFEEYLHVLKSVHSGTDLAVVLDYARWTLDQELISKVEHIQSVRAELMASPQGALEFSFLIAEARKMLQSTLEHVEDPTRVRDMLFLDLALDELARLAVESQGLADYVAETDVQKACNLLVVLAQHVGWSMLSSAFLETSYDLAALVYGIQSDVQLQEPDFGLRLYATMERLMDCVGHDVVERLHHDVQPKAVYIGVGCNIDQKVVTLFSEELIRGQAAFALAQVLRPLMRNIRKQANLGNWQVISPGSCTGQGAVFDELLSIQYKTFAEPTVAFVRRISGEEEIPTGMVGLITTDTLDILSHCAVRARNEHVVLACCFSEELFDQLTERFRGAWVAVRSLTDGSLDFQPIQEGAGRTTAADTTDGASEHAQRRAVSMRSDIEKKPVKSVLGIAQFNTQRGGSKSNSLAKLIRVIPDWIHIPPCALLPFGVCEQVLAEAQNSDVGERFQQLMAELDGKGPTDDCSALLARLRHCVRQLAPSDTFMKELQQVLQHEGFHSIDNLDMRRAWECILDVWASKFNDRAFLALRKAGAVGKTSLSSLYMAVLVQEVVPADYAFVLHTKNPFTGEPSEIYGELVHGLGEVLVGNYPGRALGFTYSKSTGQVRVCNYPSKTKALIPRGGLIFRSDSNGEDLEDFAGAGLFDSILMQPAEEVVVRYRELKILQDKAYLERILSKIGKCGIEIESNCGNKPQDIEGCICGEDVYVVQSRDQV
modifications: Fragment of Cyanidioschyzon merolae GWD polypeptide
notes: truncated Cm-GWD encoding the second predicted CBM and catalytic dikinase domain
ability to phosphorylate starch (specific activity) [2]: active glucan dikinase

B2: Cm-GWD H1162A: active site mutant (H1162A) of Cm-GWD 511C fragment (protein)
chain: MTILGLERRSLDDDGETVICFSVEEDGFALRVHADLSPLVIHWGIARHRVTEFLQPDESLAVETKGRTYRFENKAMRTEFVPDEHHQGTYYAEIHLKKEHAPRAVTFVLFNPELNRWYRAEGGGNFVLRMDLESFSQLPGSVGKHEDVAQKIIEVEVEYGSWTLMHRYNLANDILRNSMSALDADLLQIVFVWLRYSFLRQLDWQRSYNTQPRLLAHAQEQLTTTLAQVFVSRPDLRLWVRLCLSMLGRGGGNGQRIRDDILRIMHKHHIPETPGHFMEQWHQKLHNNTTPDDVAICESYLAFLRSNGDKNVFYETLQKHGVTKERLASYERPIFAEVQTYPCDTNSLIHDFEEYLHVLKSVHSGTDLAVVLDYARWTLDQELISKVEHIQSVRAELMASPQGALEFSFLIAEARKMLQSTLEHVEDPTRVRDMLFLDLALDELARLAVESQGLADYVAETDVQKACNLLVVLAQHVGWSMLSSAFLETSYDLAALVYGIQSDVQLQEPDFGLRLYATMERLMDCVGHDVVERLHHDVQPKAVYIGVGCNIDQKVVTLFSEELIRGQAAFALAQVLRPLMRNIRKQANLGNWQVISPGSCTGQGAVFDELLSIQYKTFAEPTVAFVRRISGEEEIPTGMVGLITTDTLDILSACAVRARNEHVVLACCFSEELFDQLTERFRGAWVAVRSLTDGSLDFQPIQEGAGRTTAADTTDGASEHAQRRAVSMRSDIEKKPVKSVLGIAQFNTQRGGSKSNSLAKLIRVIPDWIHIPPCALLPFGVCEQVLAEAQNSDVGERFQQLMAELDGKGPTDDCSALLARLRHCVRQLAPSDTFMKELQQVLQHEGFHSIDNLDMRRAWECILDVWASKFNDRAFLALRKAGAVGKTSLSSLYMAVLVQEVVPADYAFVLHTKNPFTGEPSEIYGELVHGLGEVLVGNYPGRALGFTYSKSTGQVRVCNYPSKTKALIPRGGLIFRSDSNGEDLEDFAGAGLFDSILMQPAEEVVVRYRELKILQDKAYLERILSKIGKCGIEIESNCGNKPQDIEGCICGEDVYVVQSRDQV
modifications: Fragment of Cyanidioschyzon merolae GWD polypeptide
ability to phosphorylate starch (specific activity) [2]: lacked activity

The next lines start with results.

Kd ([1]; change in Tm with increasing concentration of oligosaccharide, apparent dissociation constant): 7 mM
Molecule: OC[C@H]1O[C@H](O[C@H]2[C@H](O)[C@@H](O)[C@@H](O[C@H]3[C@H](O)[C@@H](O)[C@@H](O[C@H]4[C@H](O)[C@@H](O)[C@@H](O[C@H]5[C@H](O)[C@@H](O)[C@@H](O[C@H]6[C@H](O)[C@@H](O)C(O)O[C@@H]6CO)O[C@@H]5CO)O[C@@H]4CO)O[C@@H]3CO)O[C@@H]2CO)[C@H](O)[C@@H](O)[C@@H]1O (some centres unmarked) [maltohexaose]

stabilization (change in Tm) ([1]; increasing concentration of oligosaccharide, negative control): No stabilization
Molecule: OC[C@H]1O[C@H](O[C@H]2[C@H](O)[C@@H](O)C(O)O[C@@H]2CO)[C@H](O)[C@@H](O)[C@@H]1O (some centres unmarked) [maltose]

effect on glucose release when used with AtGWD ([3]; amylases plus AtGWD plus SEX4 (full starch phosphorylation cycle)): more than doubling
effect on glucose release when used with St-GWD ([3]; amylases plus St-GWD plus SEX4 (full starch phosphorylation cycle)): more than doubling
B3: SEX4: Arabidopsis glucan phosphatase Starch EXcess4 (protein, UniProt Q9FEB5 55-379, looked up)
Phosphoglucan phosphatase …: SESKSSSEMSGVAKDEEKSDEYSQDMTQAMGAVLTYRHELGMNYNFIRPDLIVGSCLQTPEDVDKLRKIGVKTIFCLQQDPDLEYFGVDISSIQAYAKKYSDIQHIRCEIRDFDAFDLRMRLPAVVGTLYKAVKRNGGVTYVHCTAGMGRAPAVALTYMFWVQGYKLMEAHKLLMSKRSCFPKLDAIRNATIDILTGLKRKTVTLTLKDKGFSRVEISGLDIGWGQRIPLTLDKGTGFWILKRELPEGQFEYKYIIDGEWTHNEAEPFIGPNKDGHTNNYAKVVDDPTSVDGTTRERLSSEDPELLEEERSKLIQFLETCSEAEV
effect on glucose release when added to amylases ([3]; BAM3, ISA3, 25° C., 60 minutes, FIG. 7): did not enhance glucose release on its own
